Protein production data for 20 sequences are collected here from a protein production outcome set (Wang et al. 2014).

A short description of this data set: label from the status in PepcDB records.

Regarding “MAEPGGHEGPASTQRAKVCETHTAMVFFVEDRVYKRKKPVDLGFLDYTTRSSRRAVCEREIELNRRFAPDVYLGLGELRTPGEQEAEPLVVMRRMPDDRRLSHLVRTGAPVADDLRAVARHLAAWHSAAPRGPAIAEQGTRDALAARWEASFTQVDVLAAKGPTRDEAGEVERLVRRYLAGRKPLFGLRIEQGRVLDGHGDLLADDVFCLGDGPRILDCLEFDDALRYVDGLDDAAFLAMDLESLGAPESAAFFLAQYGEYSGDPAPPSLWHHYVAYRAFVRAKVSLIQARQGAPGAHATARRLVRMALRHLRASAVGLTLVAGLPGTGKSTLSGALADRLGAVLLSSDRLRKEMAGLSPQQTASADYGEGLYTPEWTARTYAELLDRAAALLALGESVVLDATWIDSAQREAARHTAESAGADLVALHCHVPDDVTAARLSTRAPGASDADLGVAEAMAAEEQPWSGAVGVDTGGSLEAAVGQALAAVRPWGSDQAKVFRRPYMEPDLEHHHHHH”, the protein production result was “failed”.
The same measure for “MAESPTEEAATATAGAGAAGPGSSGVAGVVGVSGSGGGFGPPFLPDVWAAAAAAGGAGGPGSGLAPLPGLPPSAAAHGAALLSHWDPTLSSDWDGERTAPQCLLRIKRDIMSIYKEPPPGMFVVPDTVDMTKIHALITGPFDTPYEGGFFLFVFRCPPDYPIHPPRVKLMTTGNNTVRFNPNFYRNGKVCLSILGTWTGPAWSPAQSISSVLISIQSLMTENPYHNEPGFEQERHPGDSKNYNECIRHETIRVAVCDMMEGKCPCPEPLRGVMEKSFLEYYDFYEVACKDRLHLQGQTMQDPFGEKRGHFDYQSLLMRLGLIRQKVLERLHNENAEMDSDSSSSGTETDLHGSLRV”: “failed”.
Next, “MAESTQMEVETATEGTVPLPPKPTFKPLKAHEMSDGKVQFRKIAVPPNRYSPLKKAWLDIYTPIYDQMKVDIRMNLKARKVELKTRADTPDISNLQKSADFVHAFMLGFDIPDAISLLRMDELYVESFEIKDVKTLKGEHLSRAIGRLSGKGGKTKFAIENSTKTRIVIADTRIHILGAFSNIKVARSSLCSLIMGSPAGKVYSKLRSVSARLNE”: “failed”.
Next, “MAETNTATSAVNAQITDAVTQVNTKVVGETPAMAMGNLLMSTSHALSNTAHNATAAQQQGQITMQAATVQGVNSLMSVSSAVIGRSSEEVIEKG”: “failed”.
As to “MAFAEGALDALKVAFQEGARSLVLLSPVLFRDALLSARLGALRFGLERGGVEGFARVGRALFFGALSAGSEEVYEAWKEGLSEAGLWRWLGRLEALADERRWLRGTAARVLVVQGALDAFTPPLHGAKVADFAKGEALRFVVDEAGHLVPWEAQEEVRDLVADFLLGEGFRPLPGGLAL”, the protein production result is “failed”.
Next, “MAFASLFTLPDYIAAVLDDVALMTKAAAKKTAGVAGDDLAPNANRVTGVSAERELPIVWPVAKGSFANKPVLVSAALLLSAFLPQLITPLLTAGGIYLCFEGVEKLLHKFLHRHDAHDDGGETAVNEQAKIKGAIRTDFILSAEIIIIALCVVEQYSLMTRSLVMAAIGIGMTVLVYGIVAVIVKLDDLGMLLMRRPQPRPFARFPARATLERWLDRVFRQPRCRAAFRFDCLRPALSLMNRFGRH”: “failed”; “MAFLTNDDVVLICDKNYDCPTKIQSVRQKDTTCVAFRPWSQTCEFAVGCAAGICLWSDSRRLNANRNIRRMMGTHHLQVLQDKGHNYVTSMQWNEDGTILVTAAFGSSHIMLWEPDCQQKIRLIPNPKSLGSFSLLRFSPDFHVLFCASCDAGASLCQLNRSKWKLKQILGQQRIQSAVWTTCGSTLLYACYGSTRVYSCTSDGEDSVFLRPQSIWRVQLIMDLQLVTTCAGQRLCCGEPQCLAMDPLGIYMASIFKEQSFVLLCILHTSRWGNVKLLPVEFIYCDMDGDQYPAYISFGVLKAEIRFLIIAWNTGHFQRYDITAQCFRDAQLYHNIN”: “failed”.
The same measure for “MAFVVNGNEYNLAYYLTDEIYPKWATFIQSISLPQDEKASLFATNQEACRKDVERAFGVLQARFAIVKHPALIWDKIKIGNIMRACIILHNMIVEDERDGYTQYDVSDFAHPESASSSQVDFTYSTDMPSNLGNMMATRTRLRDRTKHEHLKADLVEHIWQKFGPIQA”: “failed”; for “MAGAITHDHAAAAQGRQGGPLIVTEDVELLDDLLRLCAAAGARPEVHHTVPDGRGTWEAAPLVLVGDDAARRVRGAARRRGVVLVGRDQDDSGVWRRAVEIGADHVLLLPDGEQWLVDRIADVAEGVGRPALTVGVIGGRGGAGASTLACALAVTSARQGRRTLLVDADPLGGGLDVLLGGETAEGLRWPAFAASRGRVGGGALEESLPELHALRVLSWDRGDAVAVPPQAVRAVLAAARRRGGAVVVDLPRRVDEGAAEALAQVDLGVLVVPAELRAIAAAARVASAAGMVLGDLRVAVRGPYAPGLDDREVARLLGLPLLGEVPAEPPVPDGGVPPGGAARGPLARFCAVFWDRALVEAGGVLEHHHHHH”: “failed”.
The same measure for “MAGATDQRRQEVLRAIVADYIASQEPVGSKALLERHNLKVSSATIRNDMAVLESEGYIVQQHASSGRIPTEKAYRTFVDSINDIKPLSVAERRAILGFLERGVDLEDVLKRSVQLLSQLTRQAAVIQLPNLNVSRVKHCE”: “failed”.
As to “MAGEFRLLSHLCSRGSKVGELAQDTRTSLKTSWYLLGPAFVAAIAYVDPGNVAANVSSGAQFGYLLLWVIVAANVMAALVQYLSAKLGLVTGRSLPEAIGKRMGRPARLAYWAQAEIVAMATDVAEVIGGAIALRIMFNLPLPIGGIITGVVSLLLLTIQDRRGQRLFERVITALLLVIAIGFTASFFVVTPPPNAVLGGLAPRFQGTESVLLAAAIMGATVMPHAVYLHSGLARDRHGHPDPGPQRRRLLRVTRWDVGLAMLIAGGVNAAMLLVAALNMRGRGDTASIEGAYHAVHDTLGATIAVLFAVGLLASGLASSSVGAYAGAMIMQGLLHWSVPMLVRRLITLGPALAILTLGFDPTRTLVLSQVVLSFGIPFAVLPLVKLTGSPAVMGGDTNHRATTWVGWVVAVMVSLLNVMLIYLTVTG”, the protein production result was “failed”.
On to “MAGGPPNTKAEMEMSLAEELNHGRQGENQEHLVIAEMMELGSRSRGASQKKQKLEQKAAGSASAKRVWNMTATRPKKMGSQLPKPRMLRESGHGDAHLQEYAGNFQGIRFHYDRNPGTDAVAQTSLEEFNVLEMEVMRRQLYAVNRRLRALEEQGATWRHRETLIIAVLVSASIANLWLWMNQ”, for which the protein production result was “failed”.
As to “MAGKQQERVNVEGHELTLTNLNKIIYPETGTTKAEVLEYYAAVAPFLIPAAANRPVTRKRWVNGVGTAENPGQVFFQKNLEDSAPKWIPRAAIQHSDHTNVYPMVNNLATLTWMAQIASLEIHVPQWQVDPSGKPLRPDRFVLDLDPGPGAGLPECVEVAKLARSILQDMGMDPVPVTSGSKGIHLYTGLDGTLKSEQVSAFAKELARALESDHPELVVSDMKKSLRHGKVLVDWSQNSGNKTTIVPYSLRGKAHPTVAAPRTWRELSSPSLEHLDYVAVMKRVKTGKDHFAPISERHLPPHGEDENDDDGTAGSSSGTGRSRERVVTVENRLAKYVGMRDPGKTPEPFPSSSAVSASPQSAGSSSDQPKPGDPPPPGGIFVIQEHHARRYHLDLRLEHHGVLASWALPRGIPETPDRNNLAVHTEDHPMEYANFAGVIPKGEYGAGTMTIWDRGEYTCEKWRDGKEVIATLTGEPGGGLGGTKRFALINTGQNWLIHLMKEQPGGRRGTQPAANAAAPKSAPAQPQPQPMPNYSPMLATSGTTADLRGDDWLYELKWDGIRAIITGTESRIRLMSRNGNDLTAAYPELTDRACWPDGDFVADGEIVALGKGSRPDFGRLQLRMNLVKAADIERARATVPVQLMLFDLLYDDGTDLSGLPFHERRERLSGFAERWRVGCPLHLSAVLDHDVEDLMTSAAELGLEGVMAKKADSRYVIGRRSRSWIKLKLEQSQEVVVGGWRPGAGARAGTFGALLLGIPDGDKLHYVGRVGSGFKDWQLRDIMEKLEPLAIVESPFADIPREDAAGATWVSPELVAEVTFGEWTGPGRLRHPVWRGWRPDKSAGEVTLAGS”, the protein production result was “failed”.
Take “MAGLAISPPLGLSFSSRTRNPKPTSFLSHNQRNPIRRIVSALQSPYGDSLKAGLSSNVSGSPIKIDNKAPRFGVIEAKKGNPPVMPSVMTPGGPLDLSSVLFRNRIIFIGQPINAQVAQRVISQLVTLASIDDKSDILMYLNCPGGSTYSVLAIYDCMSWIKPKVGTVAFGVAASQGALLLAGGEKGMRYAMPNTRVMIHQPQTGCGGHVEDVRRQVNEAIEARQKIDRMYAAFTGQPLEKVQQYTERDRFLSASEALEFGLIDGLLETEY”: the protein production result is “not failed”.
Next, “MAGLFTPKDAAMNIAIVTINQENAAIASWLAAQDFSGCTLAHWQIEPQPVVAEQVLDAMVEQWQRTPADVVLFPPGTFGDELSTRLAWRLHGASICQVTSLDIPTVSMRKSHWGNALTATLQTEKRPLCLSLARQAGAAKNATLPSGMQQLNIVPGALPDWLVSTEDLKNVSRDPLAEARRVLVVGQGGEADNQEIVMLAEKLGAEVGYSRARVMNGGVDAEKVIGISGHLLAPEVCIVVGASGAAALMAGVRNSKFMVAINHDASAAVFSQADIGVVDDWKVVLEALVTNIHAEYQ”: “failed”.
The same measure for “MAGLINKIGDALHIGGGNKEGEHKKEEEHKKHVDEHKSGEHKEGIVDKIKDKIHGGEGKSHDGEGKSHDGEKKKKKDKKEKKHHDDGHHSSSSDSDSD”: “failed”; for “MAGLLSGLPMTSALVMLFLSLEQGAVFASMAVPGALAGLAAIQATYLFYFLVTRRVSAVAGCVLALALYGATAFLMNLSGSLALSILFTLLMVALIIVATSKQTPPAAAPYVALPRWVIPMRMLTATLLLLAITASATWLGPVVSGLLAPIPVIAWPLAVFVHVQGGRYELAAIIRGNAIGAVGVLSFYLTLRYSLLQWGALLSITTAVLLAVVVTAVLARLLAKR”: “failed”.
The same measure for “MAGQTEQVLNGVLEDIEHGRLGPGDLLEEAALTERHGVSRTPVREALIQLETQGLIRRLPRKGAVVFKPTLEEFLAILEVHARLEGQAAGLAARRMNATQAAELEAVVAACEAHARDKGDGDPFGYYRLNLRFHETVALGAGNPYLVEMIKTHARKLLAYYRARYSYPGSIPASAREHRQIATLIFDRRREEAEAAMIRHVQFDQVTVMDLLAALG”: “failed”; for “MAGRQPGGAAMKALLHGIAEGNGRTLRNLLGLLIFIGGGYLLGRHALLLAELNLPAPIVLALKGGLLCAFGTALGAMPVLVVKTMPARLSDALLGFGAGVMLSATAFSLIMPALSAAGDLGYSKFGAGFLVSFGLAVGVMGLFILGRLMPDVHPGCEGAPLSGGIPPRILLFVTAIVLHNIPEGMAVGVSAGAGLDEANGLALGIALQDVPEGLVVALVLAGVGMSRFKAMLVGAASGLVEPLFAVLCAWLVGLSALLLPWGLAAAAGAMLFVVTHEIIPESHRQGHAAEATLGLVFGFCLMMVLDTALG”: “failed”.
“MAGSHAGTLRVLQAVDTELTADSVEWCPVEGYQHLLACGTYQLRAPRDQPALDGSEPQVRLGRLYLFSFSEHNTAKPLLEVQRRDSSAVLDMKWCHIPVSGHVLLGLANASGSIGLLRLMECENNSYTLQPISSLALDENCLSLSMDWSTGKSVRAREQPLKIISSDSKGQLHLLMVNEGTAELQLVASWPAHHFEAWIAAFNYWQTELVYSGGDDCLLRGWDTRMLGTPVFTSKRHCMGVCSIQSSPHQEHILATGSYDEHVLLWDTRNIRQPLADVPVQGGVWRLKWHPVHHHLLLAACMHNGFKILNCQKAIEEKQDITVLTSHEMPNSLVYGADWSWLFHSMKPTPTWFFDQNDMGVKAADHSSLKVTEEPPIHSQEQTMDRQVEGPANAHTRAELKASLLPLTEDMKNSKDCSSSSVKTRDLSHCSGGQSFDNSLLATCSFYDHVLHLWKWETNQARTLCSGTGCDLGSADH”: the protein production entry is on record as “failed”.
